In PMC3578163 (Chemical research in toxicology, 2013):
Like-named read-outs stand apart in the source and are kept apart here.

Experiments:
Assay in all cases: fluorescence polarization
[1] = biological target: T1, DNA polymerase kappa catalytic core (hpol κ19-526) (Homo sapiens, UniProt Q9UBT6 19-526)
T1 sequence: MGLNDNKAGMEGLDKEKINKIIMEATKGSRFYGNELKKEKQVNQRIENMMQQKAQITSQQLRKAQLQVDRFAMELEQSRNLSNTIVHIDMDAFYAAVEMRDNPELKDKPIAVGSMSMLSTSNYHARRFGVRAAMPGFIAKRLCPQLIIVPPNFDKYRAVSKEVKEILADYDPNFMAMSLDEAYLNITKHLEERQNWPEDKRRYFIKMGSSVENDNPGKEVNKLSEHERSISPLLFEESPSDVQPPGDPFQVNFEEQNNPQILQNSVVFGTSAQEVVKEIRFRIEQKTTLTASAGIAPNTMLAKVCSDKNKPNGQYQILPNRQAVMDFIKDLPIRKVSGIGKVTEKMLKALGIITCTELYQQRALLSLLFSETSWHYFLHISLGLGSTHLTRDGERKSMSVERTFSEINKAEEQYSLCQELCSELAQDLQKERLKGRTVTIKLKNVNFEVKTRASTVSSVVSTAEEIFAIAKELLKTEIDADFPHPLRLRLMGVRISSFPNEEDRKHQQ

[2] = biological target: T2, DNA polymerase iota catalytic core (hpol ι26-446) (Homo sapiens, UniProt Q9UNA4 26-446)
T2 sequence: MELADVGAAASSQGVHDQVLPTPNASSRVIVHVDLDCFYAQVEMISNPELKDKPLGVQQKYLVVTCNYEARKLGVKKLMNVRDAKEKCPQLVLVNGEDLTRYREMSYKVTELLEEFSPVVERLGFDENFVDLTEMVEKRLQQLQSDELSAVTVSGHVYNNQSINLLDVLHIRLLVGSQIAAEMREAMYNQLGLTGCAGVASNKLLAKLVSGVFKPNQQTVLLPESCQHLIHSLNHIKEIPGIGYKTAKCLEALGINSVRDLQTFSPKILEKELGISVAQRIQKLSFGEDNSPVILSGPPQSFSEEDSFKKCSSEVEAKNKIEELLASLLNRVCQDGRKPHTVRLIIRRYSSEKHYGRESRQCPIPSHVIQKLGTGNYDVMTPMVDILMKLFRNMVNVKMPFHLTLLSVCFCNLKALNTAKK

[3] = biological target: T2, DNA polymerase iota catalytic core …; remark: listed apart in the source
[4] = biological target: T2, DNA polymerase iota catalytic core …; remark: listed apart in the source
[5] = biological target: T1, DNA polymerase kappa catalytic core …; remark: listed apart in the source
[6] = biological target: T2, DNA polymerase iota catalytic core …; remark: listed apart in the source
[7] = biological target: T1, DNA polymerase kappa catalytic core …; remark: listed apart in the source
[8] = biological target: T2, DNA polymerase iota catalytic core …; remark: listed apart in the source

B1: FAM-13/18mer primer-template DNA (dsDNA)
DNA 1: TTTGGGGGAAGGATTC
DNA 2: TCACGGAATCCTTCCCCC
B1 gave a Kd [1] of 11.1 ± 5.1 nM, a Kd [2] of 5.3 ± 0.7 nM and a Kd [3] of 9.1 ± 1.6 nM. The Kd [4] was 8.8 ± 1.3 nM, the Kd [5] was 19 ± 5.6 nM and the Kd [6] was 6.3 ± 0.9 nM. For the same binder, the Kd [7] was 13.7 ± 5.1 nM and the Kd [8] was 5.5 ± 0.7 nM.
